{"source": "paper PMC3333854", "about": "(Nucleic Acids Research, 2011)", "binders": {"B1": {"name": "DksA^A35C labeled with Alexa Fluor 546 maleimide (natural protein, Escherichia coli, UniProt P0ABS1 1-151, looked up)", "chain": "MQEGQNRKTSSLSILAIAGVEPYQEKPGEEYMNECQLAHFRRILEAWRNQLRDEVDRTVTHMQDEAANFPDPVDRAAQEEEFSLELRNRDRERKLIKKIEKTLKKVEDEDFGYCESCGVEIGIRRLEARPTADLCIDCKTLAEIREKQMAG", "modifications": "labeled with Alexa Fluor 546 maleimide (labeling efficiency 60-100%)"}}, "target": "wild-type E. coli core RNA polymerase (E. coli, UniProt P0A8T7 1-1407; P0A8V2 1-1342; P0A7Z4 1-329; P0A800 1-91)", "sequence (P0A8T7 whole entry, chain 1 of 4)": "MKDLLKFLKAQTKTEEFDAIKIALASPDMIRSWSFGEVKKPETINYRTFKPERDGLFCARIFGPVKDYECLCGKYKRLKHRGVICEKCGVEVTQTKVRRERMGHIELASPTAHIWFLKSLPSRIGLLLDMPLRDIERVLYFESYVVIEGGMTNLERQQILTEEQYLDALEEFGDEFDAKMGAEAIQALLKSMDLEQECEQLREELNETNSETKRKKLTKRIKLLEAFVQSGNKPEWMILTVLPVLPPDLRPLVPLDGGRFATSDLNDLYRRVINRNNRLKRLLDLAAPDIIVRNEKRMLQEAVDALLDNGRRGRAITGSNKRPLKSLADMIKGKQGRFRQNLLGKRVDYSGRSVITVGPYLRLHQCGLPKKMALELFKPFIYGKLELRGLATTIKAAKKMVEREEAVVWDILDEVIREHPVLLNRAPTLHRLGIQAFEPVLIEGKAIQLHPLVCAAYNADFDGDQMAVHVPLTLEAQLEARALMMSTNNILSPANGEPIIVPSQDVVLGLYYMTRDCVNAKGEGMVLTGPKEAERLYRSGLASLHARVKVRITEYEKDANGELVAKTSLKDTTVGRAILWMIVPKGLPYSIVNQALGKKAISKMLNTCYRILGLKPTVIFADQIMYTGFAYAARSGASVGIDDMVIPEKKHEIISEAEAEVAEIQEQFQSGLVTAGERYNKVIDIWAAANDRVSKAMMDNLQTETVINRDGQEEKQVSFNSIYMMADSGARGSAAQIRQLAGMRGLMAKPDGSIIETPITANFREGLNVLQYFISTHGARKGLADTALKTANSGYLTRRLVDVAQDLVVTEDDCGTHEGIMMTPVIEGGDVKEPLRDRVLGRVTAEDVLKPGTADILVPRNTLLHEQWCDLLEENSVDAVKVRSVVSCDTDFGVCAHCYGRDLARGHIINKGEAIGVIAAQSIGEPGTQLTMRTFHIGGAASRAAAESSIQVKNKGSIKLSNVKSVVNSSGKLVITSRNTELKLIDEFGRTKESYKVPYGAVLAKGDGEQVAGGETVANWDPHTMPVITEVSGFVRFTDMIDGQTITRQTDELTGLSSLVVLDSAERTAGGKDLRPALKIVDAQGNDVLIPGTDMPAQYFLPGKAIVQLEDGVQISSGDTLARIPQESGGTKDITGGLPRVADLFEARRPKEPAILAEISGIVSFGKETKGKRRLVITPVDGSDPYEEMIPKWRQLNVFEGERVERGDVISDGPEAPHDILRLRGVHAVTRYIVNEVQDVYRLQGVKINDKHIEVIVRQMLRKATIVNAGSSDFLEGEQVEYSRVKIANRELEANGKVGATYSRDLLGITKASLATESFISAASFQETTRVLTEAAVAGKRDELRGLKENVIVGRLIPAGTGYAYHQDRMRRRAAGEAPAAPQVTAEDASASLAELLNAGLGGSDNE", "sequence (P0A8V2 whole entry, chain 2 of 4)": "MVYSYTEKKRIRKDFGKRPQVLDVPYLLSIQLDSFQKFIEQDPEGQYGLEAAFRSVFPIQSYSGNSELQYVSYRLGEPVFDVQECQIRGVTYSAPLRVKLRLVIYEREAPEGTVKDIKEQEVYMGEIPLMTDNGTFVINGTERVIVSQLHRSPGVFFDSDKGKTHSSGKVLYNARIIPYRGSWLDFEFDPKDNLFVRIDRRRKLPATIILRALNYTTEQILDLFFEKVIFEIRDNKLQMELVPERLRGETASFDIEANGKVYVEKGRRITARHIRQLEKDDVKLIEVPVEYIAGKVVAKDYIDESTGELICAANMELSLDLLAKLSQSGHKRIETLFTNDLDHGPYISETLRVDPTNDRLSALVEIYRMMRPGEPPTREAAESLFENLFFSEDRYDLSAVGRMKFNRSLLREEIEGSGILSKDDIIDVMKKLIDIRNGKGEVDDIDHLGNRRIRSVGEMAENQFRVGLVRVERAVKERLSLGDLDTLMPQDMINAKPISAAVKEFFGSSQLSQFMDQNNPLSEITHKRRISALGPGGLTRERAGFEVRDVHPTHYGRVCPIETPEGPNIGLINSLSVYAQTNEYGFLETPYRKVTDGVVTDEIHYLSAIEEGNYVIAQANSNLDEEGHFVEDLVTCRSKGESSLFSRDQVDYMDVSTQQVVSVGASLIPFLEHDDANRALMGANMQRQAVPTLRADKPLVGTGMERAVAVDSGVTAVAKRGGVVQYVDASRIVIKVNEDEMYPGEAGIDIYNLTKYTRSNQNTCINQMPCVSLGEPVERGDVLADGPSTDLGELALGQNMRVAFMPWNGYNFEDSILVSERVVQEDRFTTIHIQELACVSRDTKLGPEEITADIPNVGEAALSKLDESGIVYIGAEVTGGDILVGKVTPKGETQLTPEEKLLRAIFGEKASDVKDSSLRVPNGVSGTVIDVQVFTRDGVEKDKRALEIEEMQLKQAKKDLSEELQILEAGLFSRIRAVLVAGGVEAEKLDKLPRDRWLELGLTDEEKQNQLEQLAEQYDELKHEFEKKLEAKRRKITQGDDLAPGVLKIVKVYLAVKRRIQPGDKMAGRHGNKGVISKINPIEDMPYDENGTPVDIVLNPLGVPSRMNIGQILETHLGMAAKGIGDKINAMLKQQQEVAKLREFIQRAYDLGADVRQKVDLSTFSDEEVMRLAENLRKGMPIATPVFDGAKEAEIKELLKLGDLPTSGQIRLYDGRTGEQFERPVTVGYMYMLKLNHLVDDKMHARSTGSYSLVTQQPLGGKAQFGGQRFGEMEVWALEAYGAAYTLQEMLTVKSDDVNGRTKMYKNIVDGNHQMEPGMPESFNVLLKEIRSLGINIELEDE", "sequence (P0A7Z4 whole entry, chain 3 of 4)": "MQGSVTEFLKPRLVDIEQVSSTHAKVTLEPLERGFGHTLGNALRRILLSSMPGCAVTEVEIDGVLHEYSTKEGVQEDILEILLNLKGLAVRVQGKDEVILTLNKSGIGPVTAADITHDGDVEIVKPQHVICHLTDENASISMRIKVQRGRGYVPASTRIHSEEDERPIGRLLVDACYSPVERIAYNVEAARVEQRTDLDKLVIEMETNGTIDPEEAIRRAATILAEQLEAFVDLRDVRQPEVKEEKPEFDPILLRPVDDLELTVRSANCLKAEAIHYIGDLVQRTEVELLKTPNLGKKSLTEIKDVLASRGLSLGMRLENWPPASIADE", "sequence (P0A800 whole entry, chain 4 of 4)": "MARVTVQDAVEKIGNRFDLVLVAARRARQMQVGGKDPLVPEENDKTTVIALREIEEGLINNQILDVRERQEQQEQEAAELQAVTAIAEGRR", "test": "fluorescence polarisation", "data": [{"binder": "B1", "values": [{"measurement": "Kd", "value": "102 ± 13", "unit": "nM"}]}]}
